Assay results: publication doi:10.1101/2024.08.05.606605v1

System: O=[N+]([O-])c1ccc(O[C@@H]2O[C@H](CO)[C@@H](O)[C@H](O)[C@H]2O)cc1
Test: purified protein
Conditions: 50 mM sodium acetate pH 5.5, 55 °C

Substance | Km [mM] | kcat [min⁻¹]
WT-AtGH1 (Acetivibrio thermocellus ATCC 27405) | 2.42 ± 0.17 | 604.8
WT-AtGH1 (Acetivibrio thermocellus ATCC 27405; G168W) | 2.23 ± 0.13 | 547.05
WT-AtGH1 (Acetivibrio thermocellus ATCC 27405; S242L) | 1.79 ± 0.11 | 425.25
WT-AtGH1 (Acetivibrio thermocellus ATCC 27405; S242W) | 2.1 ± 0.1 | 1626.9
WT-AtGH1 (Acetivibrio thermocellus ATCC 27405; G168W/S242L) | 1.32 ± 0.11 | 742.9
